Data: PMC7216292, “A Multivalent ICAM-1 Binding Nanoparticle which Inhibits ICAM-1 and LFA-1 Interaction Represents a New Tool for the Investigation of Autoimmune-Mediated Dry Eye” (International Journal of Molecular Sciences, 2020)

B1: IBP-SI (ICAM-1 binding peptide fused to the diblock elastin-like polypeptide S48I48) (designed binder)
chain: MGFEGFSFLAFEDFVSSIGVPGSGVPGSGVPGSGVPGSGVPGSGVPGSGVPGSGVPGSGVPGSGVPGSGVPGSGVPGSGVPGSGVPGSGVPGSGVPGSGVPGSGVPGSGVPGSGVPGSGVPGSGVPGSGVPGSGVPGSGVPGSGVPGSGVPGSGVPGSGVPGSGVPGSGVPGSGVPGSGVPGSGVPGSGVPGSGVPGSGVPGSGVPGSGVPGSGVPGSGVPGSGVPGSGVPGSGVPGSGVPGSGVPGSGVPGSGVPGSGVPGIGVPGIGVPGIGVPGIGVPGIGVPGIGVPGIGVPGIGVPGIGVPGIGVPGIGVPGIGVPGIGVPGIGVPGIGVPGIGVPGIGVPGIGVPGIGVPGIGVPGIGVPGIGVPGIGVPGIGVPGIGVPGIGVPGIGVPGIGVPGIGVPGIGVPGIGVPGIGVPGIGVPGIGVPGIGVPGIGVPGIGVPGIGVPGIGVPGIGVPGIGVPGIGVPGIGVPGIGVPGIGVPGIGVPGIGVPGIGY
notes: N-terminal leader; residue between IBP and the ELP; Unlabelled form; also called IBI-SI; source: E. coli BLR(DE3), purified by ELP-mediated phase separation
B2: SI (diblock elastin-like polypeptide S48I48) (other)
chain: MGVPGSGVPGSGVPGSGVPGSGVPGSGVPGSGVPGSGVPGSGVPGSGVPGSGVPGSGVPGSGVPGSGVPGSGVPGSGVPGSGVPGSGVPGSGVPGSGVPGSGVPGSGVPGSGVPGSGVPGSGVPGSGVPGSGVPGSGVPGSGVPGSGVPGSGVPGSGVPGSGVPGSGVPGSGVPGSGVPGSGVPGSGVPGSGVPGSGVPGSGVPGSGVPGSGVPGSGVPGSGVPGSGVPGSGVPGSGVPGSGVPGIGVPGIGVPGIGVPGIGVPGIGVPGIGVPGIGVPGIGVPGIGVPGIGVPGIGVPGIGVPGIGVPGIGVPGIGVPGIGVPGIGVPGIGVPGIGVPGIGVPGIGVPGIGVPGIGVPGIGVPGIGVPGIGVPGIGVPGIGVPGIGVPGIGVPGIGVPGIGVPGIGVPGIGVPGIGVPGIGVPGIGVPGIGVPGIGVPGIGVPGIGVPGIGVPGIGVPGIGVPGIGVPGIGVPGIGVPGIGY
notes: N-terminal leader; also called parent SI; source: E. coli BLR(DE3), purified by ELP-mediated phase separation

Columns and labels:
[1] = molecular target: mouse ICAM-1 (endogenous) (mouse (endogenous in bEnd.3, NOD LGACs)) (UniProt P13597)
[2] = molecular target: mouse ICAM-1 (endogenous) (mouse (endogenous in bEnd.3, NOD LGACs)) (UniProt P13597); remark: listed apart in the source
[3] = molecular target: mouse ICAM-1 (endogenous) (mouse (endogenous in bEnd.3, NOD LGACs), UniProt P13597 28-537); test: cell-based or functional assay
[4] = molecular target: the molecule itself; test: dynamic light scattering; 25 µM in PBS, pH 7.4, heated from 10 °C to 37 °C; assembly of monomers into nanoparticles above Tt1

mouse ICAM-1 (endogenous) (mouse (endogenous in bEnd.3, NOD LGACs)), sequence (P13597 28-537): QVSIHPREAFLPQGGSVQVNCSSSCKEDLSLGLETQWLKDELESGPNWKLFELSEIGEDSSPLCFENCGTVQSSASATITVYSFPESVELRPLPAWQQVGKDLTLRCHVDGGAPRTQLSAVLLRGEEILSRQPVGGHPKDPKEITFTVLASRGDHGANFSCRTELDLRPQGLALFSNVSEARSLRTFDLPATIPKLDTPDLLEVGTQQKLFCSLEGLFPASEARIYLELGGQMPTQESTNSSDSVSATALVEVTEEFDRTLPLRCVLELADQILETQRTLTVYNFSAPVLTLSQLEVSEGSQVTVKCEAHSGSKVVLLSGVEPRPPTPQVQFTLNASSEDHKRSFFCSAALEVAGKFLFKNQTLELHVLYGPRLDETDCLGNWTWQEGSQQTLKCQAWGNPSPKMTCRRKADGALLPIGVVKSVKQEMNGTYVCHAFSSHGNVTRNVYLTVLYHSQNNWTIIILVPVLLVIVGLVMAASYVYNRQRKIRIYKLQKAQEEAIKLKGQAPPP
mouse ICAM-1 (endogenous), sequence (P13597 28-537): as above

Molecule | adhesion of fluorescently labelled splenocytes to TNF-α-induced bEnd.3 cells in the presence of 100 µM SI (negative control), percent of the control without ELP, plate reader [1] [%] | splenocyte binding to TNF-α-induced bEnd.3 cells in the presence of 100 µM SI (negative control), percent of the control without ELP, flow cytometry [1] [%] | proliferation of CFSE-labelled mouse CD4+ T-cells stimulated with MCC-loaded CH27 cells, in the presence of 100 µM SI (control), 5 days, percent of the untreated mixture [2] [%] | IC50 of inhibition of adhesion of PMA-activated, CFSE-labelled mouse splenocytes (LFA-1) to TNF-α-induced bEnd.3 cells (ICAM-1), flow cytometry, IBP-SI 10-150 µM, 45 min, 37 °C [3] [µM] | IC50 of inhibition of adhesion of PMA-activated, CFSE-labelled mouse splenocytes (LFA-1) to TNF-α-induced bEnd.3 cells (ICAM-1), fluorescence plate reader, IBP-SI 10-150 µM, 45 min, 37 °C [3] [µM] | binding result [4]
lymphocyte function-associated antigen-1 (LFA-1) (from UniProt P24063 24-1162; P11835 24-771) (receptor) | 76.2 | 86.9 | 91.2 |  |  | 
B1 |  |  |  | 62.7 | 81.2 | binds
B2 |  |  |  |  |  | binds
